“Also recorded” adds a separate entry of the source.

Data set [1] concerns McA-RH7777 cells stably expressing human apoB-100 and human apoC-III (A18-C3). The class given is cell-based. To be noted: for effect on EPA-induced lipid degradation (CLD turnover): cells silenced, transfected or pre-treated, then EPA 0.4 mM, 6 h. The procedure: (§1) In certain non-limiting examples described herein, McA-RH7777 cells stably expressing human apoB-100 and human apoC-III (designated A18-C3) were used for the studies. […] In addition, these studies, particularly those concerning EPA- or DHA-triggered lysosomal motility and CLD degradation, were also performed using primary rat hepatocytes. Transfection of plasmids encoding proteins of interest, or transfection of siRNA specific for silencing target gene expression, was achieved using the FuGENE HP Extreme reagent (Roche). Representative gene silencing siRNA sequences, which are not meant to be limiting, are described in Table 1, and plasmids encoding proteins of interest are described in Table 2. The effectiveness of siRNA silencing was verified by Western-blotting of cellular content of the target proteins, and by intracellular localization assay using siRNA-Tracker (Mirus Bioscience). Twenty-four h after plasmid transfection, or 48 h after siRNA transfection, the cells were cultured in lipid-rich media containing fetal bovine serum (20%) and OA (0.4 mM). The lipid-laden cells were switched to fresh media supplemented with OA or EPA (0.4 mM). In live imaging experiments, LipidTOX Red (Life Technologies) and LysoTracker (Life Technologies) were added to media prior to EPA treatment, to visualize lipid droplets and lysosomes, respectively. For visualizing peroxisomes, Peroxisome-GFP (Invitrogen) was introduced to the cells 24 h prior to experiments. Quantification of cell lipid contents was achieved either by direct mass measurement (HPTLC) and counting the number of lipid droplets using Image J Lipid Droplet Counter Plug-In, or indirectly by Western blot analysis of cellular content of ADRP. Secretion of apoB and TG-rich lipoprotein was determined by Western blot analysis and metabolic labeling. Mitochondrial β-oxidation was measured using MitoSOX Red (Life Technologies) in situ. Autophagic flux was determined by using Cyto-ID assay (Enzo Life Science) and by monitoring GFP-LC3 clustering in situ. Interaction of Arl8b and subunits of the HOPS complex was determined in situ by the proximity ligation assay (Olink Biosience). Cytoplasmic pH was measured using the cytosolic pHrodo indicator reagent (Invitrogen). Live imaging of fluorescent-tagged proteins was performed 1 h post-EPA treatment. Cells were also collected at the time of EPA treatment for transmission EM and tomography, as well as immuno-EM. For movies, cells were imaged at 60 sec intervals every 5 min, for a total of 30 min.
The A18-C3 cells were cultured in DMEM (Invitrogen) supplemented with fetal bovine serum (20%), penicillin (50 U/mL), streptomycin (50 μg/mL, Invitrogen) and Geneticin/G418 (500 μg/mL, Gibco) at 37° C. in 5% CO2. Transfection was conducted when cells were 60-70% confluence. Appropriate plasmids were mixed with FuGENE HP extreme reagent (Roche Diagnostic), according to manufacturer's protocol, and incubated for 30 min. Twenty-four h after transfection, cells were switched to lipid-rich media containing OA (0.4 mM) for additional 16 h prior to imaging and biochemical analysis. In silencing experiments, appropriate siRNAs were transfected into cells using the X-treme GENE siRNA regent (Roche Diagnostic). Localization of siRNA in transfected cells in situ was carried out using the Cy5 Label IT-siRNA Tracker (Minis Bioscience #7213) according to manufacturer's protocol. Forty-eight h after transfection, cells were switched to lipid-rich media containing OA (0.4 mM) for additional 16 h prior to imaging and biochemical analysis.
Quantification of lipid droplets was carried out using confocal and differential interface contrast (DIC) microscopy. Lipid droplets were stained with LipidTOX Red (Invitrogen) before adding OA or EPA. All images were visualized using a 63× oil immersion objective lens. Z-series stacks were acquired with 0.2 μm steps. […]

Data set [2] concerns endogenous HOPS subunits (Vps41, Vps11, Vps39). The data set is described as follows: Proximity ligation assay (in situ co-IP) of Arl8b with HOPS subunits. The format is cell-based, rat. To be noted: mCherry-tagged Arl8b mutants; baseline and 1 h post-EPA. The procedure:
as §1
Cells were transfected with plasmids encoding RFP-tagged Arl8b^WT, Arl8b^Q75L, or Arl8b^T34N. The cells were treated with OA for 16 h (baseline condition as control). […] Quantification of signals was done in a total of 50 cells under each condition from 3 independent experiments.

For data set [3], the system named is McA-RH7777 cells (A18-C3). The experiment in a line: Live imaging of lysosomal motility and lysosome-CLD interaction (kiss-and-run). The conditions noted are these: for lysosomal adherence to / dissociation from CLD (the off phase): Arl8b-expressing cells, EPA. The format is cell-based, rat.
A further data set deals with hepatic cells. The experiment in a line: Hepatic glucose uptake (fluorescent 2-NBDG assay). The format is cell-based. The conditions noted are these: transfected cells treated with EPA.

B1: Arl8b^T34N: putative GDP-bound, dominant negative Arl8b mutant (Thr-to-Asn at 34; SEQ ID NO: 12), expressed from plasmid or adenovirus Adv-MG1023; tagged forms used (protein)
chain: MLALISRLLDWFRSLFWKEEMELTLVGLQYSGKNTFVNVIASGQFSEDMIPTVGFNMRKVTKGNVTIKIWDIGGQPRFRSMWERYCRGVNAIVYMIDAADREKIEASRNELHNLLDKPQLQGIPVLVLGNKRDLPNALDEKQLIEKMNLSAIQDREICCYSISCKEKDNIDITLQWLIQHSKSRRS
modifications: GFP/RFP tags in some forms; T34N substitution, GDP-binding
notes: tagged forms used
Turning to B1, the “lipid content of lipid-laden cells without addition of EPA” value in data set [1] (OA-treatment conditions, transfected cells) is “lipid content is lowered”. Further, the “effect on the inhibition of microautolipophagy by Vps41 and GTP-bound Arl8b” value in data set [1] (cell culture studies) is “can override the inhibitory effect of Vps41 and a GTP-bound form of Arl8b on microautolipophagy”. Besides, the “effect on EPA-induced lipid degradation (CLD turnover)” value in data set [1] is “accelerated”. For the same molecule, the “binding to endogenous HOPS subunits” value in data set [2] is “only shows interaction with Vps39”. The “lysosomal adherence to / dissociation from CLD (the off phase)” value in data set [3] is listed as “fastened”. Moreover, in the data set with hepatic cells, the glucose uptake result is reported as “increased rate of glucose uptake”.

B2: Arl8b^Q75L: putative GTP-bound, dominant active Arl8b mutant (Gln-to-Leu at 75; SEQ ID NO: 13), expressed from plasmid or adenovirus Adv-MG1022; tagged forms used (protein)
chain: MLALISRLLDWFRSLFWKEEMELTLVGLQYSGKTTFVNVIASGQFSEDMIPTVGFNMRKVTKGNVTIKIWDIGGLPRFRSMWERYCRGVNAIVYMIDAADREKIEASRNELHNLLDKPQLQGIPVLVLGNKRDLPNALDEKQLIEKMNLSAIQDREICCYSISCKEKDNIDITLQWLIQHSKSRRS
modifications: GFP/RFP tags in some forms; Q75L substitution, GTP-binding
notes: tagged forms used
As for B2, the “effect on EPA-induced lipid degradation (CLD turnover)” value in data set [1] was “completely blocked”. In addition, the “binding to endogenous HOPS subunits” value in data set [2] is “binds to Vps41 and Vps11; also recorded: does not bind to Vps39”. Also, the “lysosomal adherence to / dissociation from CLD (the off phase)” value in data set [3] is given as “no disassociation of lysosomes from CLD occurred”; in data set [3] (listed as GFP::Arl8b^Q75L), “prolonged lysosomal adherence to CLD”. For the same molecule, the “effect on EPA-triggered lysosomal motility / lysosomal interaction with CLD” value in data set [3] (cells silenced, transfected or pre-treated (15 min) before EPA) was “higher incidence of direct lysosome-lipid droplet interaction”. For the same molecule, the glucose uptake result in the data set with hepatic cells was “virtually abolished glucose uptake”.

Source of the values: patent publication US11298402B2, “Lysosomal degradation of lipids and proteins and method of use thereof” (University of Ottawa, priority 2015, dated 2022).
